Results reported in article PMC5696371, “The HSF1–PARP13–PARP1 complex facilitates DNA repair and promotes mammary tumorigenesis” (Nature Communications, 2017).

Molecular target: T1, hPARP13-His (human, UniProt Q7Z2W4 1-902)
T1 construct: human PARP13 cDNA in pET21a, His tag at the C terminus; also called His-tagged hPARP13; source: E. coli, purified (Ni Sepharose 6 Fast Flow); not shown: His, C-terminal, kept
Assay: pull-down; purified GST fusion proteins and purified hPARP13-His mixed in NT buffer (50 mM Tris-HCl pH 7.5, 150 mM NaCl, 1 mM EDTA, 0.5% NP40) for 1 h at 4 °C, then glutathione-sepharose beads 2 h at 4 °C; immunoblotting
Details: both partners purified

T1 sequence (Q7Z2W4 whole entry): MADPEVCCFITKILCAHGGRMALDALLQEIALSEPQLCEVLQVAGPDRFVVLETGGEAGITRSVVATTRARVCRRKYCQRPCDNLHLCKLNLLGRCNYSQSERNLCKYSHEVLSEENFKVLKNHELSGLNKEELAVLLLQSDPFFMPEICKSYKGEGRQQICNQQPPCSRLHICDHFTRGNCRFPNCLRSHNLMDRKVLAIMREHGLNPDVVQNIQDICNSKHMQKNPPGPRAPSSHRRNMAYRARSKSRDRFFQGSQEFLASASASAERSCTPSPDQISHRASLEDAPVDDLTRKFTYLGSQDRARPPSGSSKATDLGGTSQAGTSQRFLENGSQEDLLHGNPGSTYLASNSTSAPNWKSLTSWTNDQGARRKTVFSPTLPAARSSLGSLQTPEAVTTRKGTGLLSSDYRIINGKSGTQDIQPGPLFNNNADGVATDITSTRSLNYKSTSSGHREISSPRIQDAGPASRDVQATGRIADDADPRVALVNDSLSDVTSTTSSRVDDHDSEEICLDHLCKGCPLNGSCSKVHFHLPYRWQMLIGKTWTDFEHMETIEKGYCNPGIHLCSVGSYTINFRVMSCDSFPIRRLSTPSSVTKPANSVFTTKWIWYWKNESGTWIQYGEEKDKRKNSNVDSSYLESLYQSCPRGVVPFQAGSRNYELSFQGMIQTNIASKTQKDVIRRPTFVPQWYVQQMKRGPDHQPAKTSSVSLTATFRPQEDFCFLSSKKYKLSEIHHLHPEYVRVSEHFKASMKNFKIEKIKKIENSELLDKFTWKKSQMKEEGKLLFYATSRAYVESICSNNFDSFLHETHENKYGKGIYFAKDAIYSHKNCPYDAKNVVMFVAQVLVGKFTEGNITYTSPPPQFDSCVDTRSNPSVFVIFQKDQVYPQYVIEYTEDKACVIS

binding result: binds
B1: GST-hHSF1 (natural protein, human, UniProt Q00613 1-529, looked up)
chain: MDLPVGPGAAGPSNVPAFLTKLWTLVSDPDTDALICWSPSGNSFHVFDQGQFAKEVLPKYFKHNNMASFVRQLNMYGFRKVVHIEQGGLVKPERDDTEFQHPCFLRGQEQLLENIKRKVTSVSTLKSEDIKIRQDSVTKLLTDVQLMKGKQECMDSKLLAMKHENEALWREVASLRQKHAQQQKVVNKLIQFLISLVQSNRILGVKRKIPLMLNDSGSAHSMPKYSRQFSLEHVHGSGPYSAPSPAYSSSSLYAPDAVASSGPIISDITELAPASPMASPGGSIDERPLSSSPLVRVKEEPPSPPQSPRVEEASPGRPSSVDTLLSPTALIDSILRESEPAPASVTALTDARGHTDTEGRPPSPPPTSTPEKCLSVACLDKNELSDHLDAMDSNLDNLQTMLSSHGFSVDTSALLDLFSPSVTVPDMSLPDLDSSLASIQELLSPQEPPRPPEAENSSPDSGKQLVHYTAQPLFLLDPGSVDTGSNDLPVLFELGEGSYFSEGDGFAEDPTISLLTGSEPPKAKDPTVS
notes: human HSF1 fused to GST; the legend marks 'full-length GST-fusion proteins'; source: E. coli, purified (Glutathione Sepharose 4B)
